Results from patent US20050182242A1, “Global analysis of protein activities using proteome chips” (priority 2001, published 2005).

B1: ARO4: yeast GST-HisX6 fusion protein on proteome chip (protein, UniProt P32449 2-370, looked up)
Phospho-2-dehydro-3-deoxyhepto …: SESPMFAANGMPKVNQGAEEDVRILGYDPLASPALLQVQIPATPTSLETAKRGRREAIDIITGKDDRVLVIVGPCSIHDLEAAQEYALRLKKLSDELKGDLSIIMRAYLEKPRTTVGWKGLINDPDVNNTFNINKGLQSARQLFVNLTNIGLPIGSEMLDTISPQYLADLVSFGAIGARTTESQLHRELASGLSFPVGFKNGTDGTLNVAVDACQAAAHSHHFMGVTKHGVAAITTTKGNEHCFVILRGGKKGTNYDAKSVAEAKAQLPAGSNGLMIDYSHGNSNKDFRNQPKVNDVVCEQIANGENAITGVMIESNINEGNQGIPAEGKAGLKYGVSITDACIGWETTEDVLRKLAAAVRQRREVNKK
modifications: GST-His6 fusion tag
notes: yeast GST-HisX6 fusion protein on proteome chip
B2: HEM14: yeast GST-HisX6 fusion protein on proteome chip (protein, UniProt P40012 1-539, looked up)
Protoporphyrinogen oxidase: MLLPLTKLKPRAKVAVVGGGVSGLCFTYFLSKLRPDVEITLFESQNRTGGWIYSCNTRDMSGNPIMLEKGPRTLRGVSDGTVLIMDTLKDLGKEAVIQSIDKGCIADKKFLLDPSDKLVQVPNSISTTVKFLLNPLGKGLITGMMGEWFRKKSPHPGQDESVESICDRRFGNNYISNNMISALLRGIYGDDVSLLSAKRTFKKIYYNELKHGSNTQAMIDNMRGKSRSKKTENLHQSLTGCLNDYSNAFGKDRSKLLDLSNTLKKYPMLGLAGGLETFPKIVRNALNEFKNVKIVTGNPVTQIMKRPANETTIGLKAKSGDQYETFDHLRLTITPPKIAKLLPKDQNSLSKLLDEIQSNTIILVNYYLPNKDVIDADLQGFGYLVPKSNKNPGKLLGVIFDSVIERNFKPLFDKLSTNPNALNKYTKVTAMIGGCMLNEHGVPVVPSREVTINAVKDALNNHLGISNKDLEAGQWEFTIADRCLPRFHVGYDAWQERAERKLQESYGQTVSVGGMGFSRSPGVPDVIVDGFNDALQLSK
modifications: GST-HisX6 tag
notes: as for B1
B3: GAD1: yeast GST-HisX6 fusion protein on proteome chip (protein, UniProt Q04792 1-585, looked up)
Glutamate decarboxylase: MLHRHGSKQKNFENIAGKVVHDLAGLQLLSNDVQKSAVQSGHQGSNNMRDTSSQGMANKYSVPKKGLPADLSYQLIHNELTLDGNPHLNLASFVNTFTTDQARKLIDENLTKNLADNDEYPQLIELTQRCISMLAQLWHANPDEEPIGCATTGSSEAIMLGGLAMKKRWEHRMKNAGKDASKPNIIMSSACQVALEKFTRYFEVECRLVPVSHRSHHMLDPESLWDYVDENTIGCFVILGTTYTGHLENVEKVADVLSQIEAKHPDWSNTDIPIHADGASGGFIIPFGFEKEHMKAYGMERWGFNHPRVVSMNTSGHKFGLTTPGLGWVLWRDESLLADELRFKLKYLGGVEETFGLNFSRPGFQVVHQYFNFVSLGHSGYRTQFQNSLFVARAFSFELLNSSKLPGCFEIVSSIHESIENDSAPKSVKDYWEHPQAYKPGVPLVAFKLSKKFHEEYPEVPQAILSSLLRGRGWIIPNYPLPKATDGSDEKEVLRVVFRSEMKLDLAQLLIVDIESILTKLIHSYEKVCHHIELASEQTPERKSSFIYEMLLALASPQDDIPTPDEIEKKNKLKETTTRNYRGTC
modifications: GST-His6 tag
notes: as for B1
B4: PAU5: yeast GST-HisX6 fusion protein on proteome chip (protein, UniProt P43575 1-122, looked up)
Seripauperin-5: MVKLTSIAAGVAAIAAGASAAATTTLSQSDERVNLVELGVYVSDIRAHLAEYYSFQAAHPTETYPVEIAEAVFNYGDFTTMLTGIPADQVTRVITGVPWYSSRLKPAISSALSADGIYTIAN
modifications: GST-His6 fusion tag
notes: as for B1
B5: HIS7: yeast GST-HisX6 fusion protein on proteome chip (protein, UniProt P33734 1-552, looked up)
Imidazole glycerol phosphate …: MPVVHVIDVESGNLQSLTNAIEHLGYEVQLVKSPKDFNISGTSRLILPGVGNYGHFVDNLFNRGFEKPIREYIESGKPIMGICVGLQALFAGSVESPKSTGLNYIDFKLSRFDDSEKPVPEIGWNSCIPSENLFFGLDPYKRYYFVHSFAAILNSEKKKNLENDGWKIAKAKYGSEEFIAAVNKNNIFATQFHPEKSGKAGLNVIENFLKQQSPPIPNYSAEEKELLMNDYSNYGLTRRIIACLDVRTNDQGDLVVTKGDQYDVREKSDGKGVRNLGKPVQLAQKYYQQGADEVTFLNITSFRDCPLKDTPMLEVLKQAAKTVFVPLTVGGGIKDIVDVDGTKIPALEVASLYFRSGADKVSIGTDAVYAAEKYYELGNRGDGTSPIETISKAYGAQAVVISVDPKRVYVNSQADTKNKVFETEYPGPNGEKYCWYQCTIKGGRESRDLGVWELTRACEALGAGEILLNCIDKDGSNSGYDLELIEHVKDAVKIPVIASSGAGVPEHFEEAFLKTRADACLGAGMFHRGEFTVNDVKEYLLEHGLKVRMDEE
modifications: GST-His6 fusion tag
notes: as for B1
B6: ERV1: yeast GST-HisX6 fusion protein on proteome chip (protein, UniProt P27882 1-189, looked up)
Mitochondrial FAD-linked …: MKAIDKMTDNPPQEGLSGRKIIYDEDGKPCRSCNTLLDFQYVTGKISNGLKNLSSNGKLAGTGALTGEASELMPGSRTYRKVDPPDVEQLGRSSWTLLHSVAASYPAQPTDQQKGEMKQFLNIFSHIYPCNWCAKDFEKYIRENAPQVESREELGRWMCEAHNKVNKKLRKPKFDCNFWEKRWKDGWDE
modifications: GST-His6 tag
notes: as for B1

System: phosphatidylcholine (PC) liposomes
Assay: Yeast proteome chip probed with PC liposomes
Conditions: liposome binding signal on yeast proteome chip, Cy3-streptavidin detection
Method in brief: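 Binding detected by fluorescent streptavidin (Cy3 or Cy5, >30 min in the dark at RT) recognizing biotin-DHPE (1% w/w) in PC liposomes, which carried 5% (w/w) of the named phosphoinositide unless PC-only. Liposomes, made by sonication in TBS, were applied to blocked chips for 1 h at RT, then washed in PBS.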

In order of rising PC:
1. B4  22.30
2. B3  24.36
3. B1  28.17
4. B2  38.15
5. B5  193.11

System: PI(3)P liposomes
Assay: Yeast proteome chip probed with PI(3)P liposomes
Conditions: liposome binding signal on yeast proteome chip, Cy3-streptavidin detection
Source text: To identify PI-binding proteins in yeast, liposomes were used as probes because the liposome provides the most relevant physiological condition to assay the interactors. Six types of liposomes were used. Each contains phosphatidylcholine (“PC”) with 1% (w/w) N-(biotinoyl)-1,2-dihexadecanoyl-sn-glycero-3-phosphoethanolamine, triethylammonium salt (biotin DHPE). The biotinylated lipid serves as a label that can be detected by Cy3-streptavidin (21). In addition to PC, the five other liposomes contain either 5% (w/w) PI(3)P, PI(4)P, PI(3,4)P2, PI(4,5)P2, or PI(3,4,5)P3 (FIG. 3A).
The protein-liposome interaction was assayed as follows. Appropriate amounts of each lipid in chloroform were mixed and dried under nitrogen. The lipid mixture was resuspended in TBS buffer by vortexing. The liposomes were created by sonication. Blocked proteome chips were washed three to five times in PBS buffer, and the extra liquid on the glass surface was removed by tapping the slides vertically on a KIMWIPE™. 200 μl of liposome solution was added to the proteome chip and immediately covered by a hydrophobic plastic cover slip (GRACE BIO-LAB™, USA). After trapped air bubbles were removed, the chip was incubated in a humidity chamber at RT for one hour. To remove the cover slip, the chip was immersed into large volume of PBS buffer (50 ml), so that the slip would float away. The chip was then moved to a second PBS bath (>50 ml) and washed 3×5 min with shaking at RT. After removing extra liquid on the surface of the chip, about 100 μl of Cy3 or Cy5 conjugated streptavidin (PIERCE™, USA; 1:2000 to 1:4000 dilution) was added to the surface and covered by a hydrophobic plastic cover slip (GRACE BIO-LABS™, USA). The chip was incubated for greater than 30 min in the dark at RT. The chip was then washed as described above. To completely remove the liquid on the chip, the chip was spun to dryness at 1500-2000 rpm for 5-10 min at RT.
• 1. S. Fields, Y. Kohara, D. J. Lockhart, Proc. Natl. Acad. Sci. 96, 8825 (1999); A. Goffeau et al., Science 274, 563 (1996). • 2 P. Ross-Macdonald et al., Nature 402, 413 (1999); J. L., DeRisi, V. R. Iyer, P. O. Brown, Science 278, 680 (1997); E. A. Winzeler et al., Science 285, 901 (1999). P. Uetz et al., Nature 403, 623 (2000); T. Ito et al., Proc. Natl. Acad. Sci. USA. 97, 1143 (2000) • 3 H. Zhu, M. Snyder, Curr. Opin. Chem. Biol. 5, 40 (2001). • 4 M. R. Martzen et al., Science 286, 1153 (1999). • 5 H. Zhu et al., Nat. Genet. 26, 283 (2000). • 6 G. MacBeath, S. L. Schreiber, Science 289, 1760 (2000). • 7 A. Caveman, J. Cell Sci. 113, 3543 (2000). • 8 P. Arenkov et al., Anal. Biochem 278, 123 (2000). • 9 D. A. Mitchell, T. K. Marshall, R. J. Deschenes, Yeast 9, 715 (1993). The expression vector pEGH was created by inserting an RGS-HisX6 epitope tag between the GST gene and the polycloning site of pEG(KG). The yeast ORFs were cloned using the strategy described previously (5), except every step was done in a 96-well format. Plasmid DNAs confirmed by DNA sequencing were reintroduced into both yeast (Y258) and E. coli (DH5a). […] 0.1 mM calcium was present in buffers in all subsequent steps. The chip was washed three times with PBS at RT. Cy3-conjugated streptavidin (Jackson IR, USA) (1:5000 dilution) was added to the chip and incubated for 30 min at RT. After extensive washing, the chip was spun dry and scanned using a microarray scanner; the data was subsequently acquired with the GENEPIX™ array densitometry software (Axon, USA). • 12 S. S. Hook, A. R. Means, Annu. Rev. Pharmacol. Toxicol.41, 471 (2001). • 13 M. S. Cyert, R. Kunisawa, D. Kaim, J. Thorner, Proc. Natl. Acad. Sci. USA 88, 7376 (1991). • 14 D. A. Stirling, K. A. Welch, M. J. Stark, EMBO J. 13, 4329 (1994). • 15 F. Bohl, Kruse, EMBO J. 19, 5514 (2000); E. Bertrand et al., Mol. Cell 2, 437 (1998). • 16 D. C. Winter, E. Y. Choe, R. Li, Proc. Nat. Acad Sci. USA 96, 7288 (1999). • 17 C.

In order of falling “PI(3)P” value:
1. B1  87.50
2. B3  51.25
3. B5  20.00
4. B6  15.75
5. B2  1.00
6. B4  −3.00

System: PI(3,4)P2 liposomes
Assay: Yeast proteome chip probed with PI(3,4)P2 liposomes
Conditions: liposome binding signal on yeast proteome chip, Cy3-streptavidin detection

In order of falling “PI(3, 4)P2” value:
1. B1  34.53
2. B2  21.03
3. B4  −5.02

System: PI(4,5)P2 liposomes
Assay: Yeast proteome chip probed with PI(4,5)P2 liposomes
Conditions: liposome binding signal on yeast proteome chip, Cy3-streptavidin detection

In order of falling “PI(4, 5)P2” value:
1. B1  20.47
2. B6  18.94
3. B5  18.73
4. B3  11.54
5. B4  −1.31

System: PI(4)P liposomes
Assay: Yeast proteome chip probed with PI(4)P liposomes
Conditions: liposome binding signal on yeast proteome chip, Cy3-streptavidin detection

In order of rising “PI(4)P” value:
1. B6  −3.27
2. B3  −1.96
3. B2  16.11
4. B4  31.35
5. B1  42.24
6. B5  226.45

System: PI(3,4,5)P3 liposomes
Assay: Yeast proteome chip probed with PI(3,4,5)P3 liposomes
Conditions: liposome binding signal on yeast proteome chip, Cy3-streptavidin detection

In order of falling “PI(3, 4, 5)P3” value:
1. B5  78.07
2. B1  29.25
3. B2  8.55
4. B6  1.35
